Measured values from EP1007666B1 (GENENTECH, INC., dated 2005).
Blank lines part the entries; values can stand above or below the binder they belong to.

How the values were obtained:
[1] = target: T1, recombinant soluble rat GDNFRα (rat, UniProt Q62997 25-430, limits assumed); assay: displaceable equilibrium binding of 125I-rGDNF to recombinant soluble rGDNFRα; Scatchard inset of Fig. 6B
T1 construct: also called rGDNFRα; GFR-alpha-1
T1 sequence (looked up): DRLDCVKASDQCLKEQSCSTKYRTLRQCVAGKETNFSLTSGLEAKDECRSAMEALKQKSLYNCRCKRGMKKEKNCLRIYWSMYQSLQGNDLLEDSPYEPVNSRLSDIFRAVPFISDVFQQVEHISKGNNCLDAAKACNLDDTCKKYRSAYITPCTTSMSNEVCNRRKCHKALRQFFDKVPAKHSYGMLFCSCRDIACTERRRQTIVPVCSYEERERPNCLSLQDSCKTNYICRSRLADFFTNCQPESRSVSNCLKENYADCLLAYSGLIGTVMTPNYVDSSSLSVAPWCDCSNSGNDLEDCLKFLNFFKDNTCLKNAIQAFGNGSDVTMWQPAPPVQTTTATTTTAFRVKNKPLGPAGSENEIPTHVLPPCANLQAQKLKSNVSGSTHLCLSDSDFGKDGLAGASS

[2] = target: T2, rat NTNRα-IgG (soluble rNTNRα, product of pRK-rNTNRα-IgG) (rat); assay: binding experiments with biotinylated ligand, format not described
T2 construct: Used as conditioned medium of transiently transfected 293 cells; also called soluble rNTNRα protein; rat fusion protein

[3] = target: T3, human NTNRα-IgG (soluble human NTNRα, product of pRK-hNTNRα-IgG) (human); assay: equilibrium binding of 125I-NTN with cold ligand to soluble NTNRα-IgG, protein A Sepharose precipitation, IGOR fit (data not shown)
T3 construct: Used as conditioned medium of transiently transfected 293 cells; also called recombinant soluble human NTNRα; hNTNRα fusion

[4] = target: T2, rat NTNRα-IgG (soluble rNTNRα, product …); assay: equilibrium binding of 125I-NTN with cold ligand to soluble NTNRα-IgG, protein A Sepharose precipitation, IGOR fit; Scatchard inset of Fig. 6C
[5] = target: T2, rat NTNRα-IgG (soluble rNTNRα, product …); assay: equilibrium binding of 125I-NTN with cold ligand to soluble NTNRα-IgG, protein A Sepharose precipitation, IGOR fit

Kd [1]: 3 pM
B1: rat GDNF (ligand, UniProt Q07731 78-211, looked up)
chain: SPDKQAAALPRRERNRQAAAASPENSRGKGRRGQRGKNRGCVLTAIHLNVTDLGLGYETKEELIFRYCSGSCEAAETMYDKILKNLSRSRRLTSDKVGQACCRPVAFDDDLSFLDDSLVYHILRKHSAKRCGCI
modifications: 125I: iodinated either on tyrosine by the Bolton Hunter method or on lysine using lactoperoxidase
notes: also called rGDNF

Kd [2]: > 1 mM
B2: GDNF, species not stated at these places (ligand)
chain: SPDKQAAALPRRERNRQAAAASPENSRGKGRRGQRGKNRGCVLTAIHLNVTDLGLGYETKEELIFRYCSGSCEAAETMYDKILKNLSRSRRLTSDKVGQACCRPVAFDDDLSFLDDSLVYHILRKHSAKRCGCI
modifications: Biotinylated in the paragraph 22 experiment; natural form is a disulfide-linked homodimer
notes: also called biotinylated GDNF

Kd [3]: ~0.01 nM
Kd [4]: ~0.01 nM
B3: mouse Neurturin (ligand, UniProt P97463 96-195, looked up)
chain: PGARPCGLRELEVRVSELGLGYTSDETVLFRYCAGACEAAIRIYDLGLRRLRQRRRVRRERARAHPCCRPTAYEDEVSFLDVHSRYHTLQELSARECACV
modifications: 125I-labelled in the direct binding assays; unlabelled as cold competitor
notes: also called mouse NTN; mNTN

Kd [3]: ~0.01 nM
Kd [5]: ~0.01 nM
B4: human Neurturin (ligand, UniProt Q99748 96-197, looked up)
chain: ARLGARPCGLRELEVRVSELGLGYASDETVLFRYCAGACEAAARVYDLGLRRLRQRRRLRRERVRAQPCCRPTAYEDEVSFLDAHSRYHTVHELSARECACV
modifications: 125I-labelled in the direct binding assays; unlabelled as cold competitor
notes: also called human NTN; hNTN
